Data published in US10597674B2, “HPPD variants and methods of use” (BASF Agricultural Solutions Seed, US LLC, priority 2015, dated 2020).

Tests used:
[1] = tested on: HPPD polypeptides (wild-type SEQ ID NO:1 and mutants); conditions: low substrate concentration; for Residual activity: kapp in presence of 50 μM Cmpd. 1, normalised to kapp without inhibitor; for Residual turnover: total change in signal in presence of 50 μM Cmpd. 1, normalised to that without inhibitor
[2] = tested on: E. coli cells expressing an HPPD polypeptide; experiment: Brown color bioassay in liquid culture, residual brown color formation (BCF), OD440 after 96 hours; format: cell-based; conditions: for Control BCF OD440nm: brown color formation in absence of Cmpd. 1, culture supernatant after 96 hours, 5 mM HPP; for Residual BCF OD440nm [%]: brown color formation with Cmpd. 1 (1000 μM) relative to without, after 96 hours
How it was run: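 E. coli expressing HPPD variants were grown at 30 degrees Celsius from OD600 0.3-0.5 in LB with 5 mM HPP, with or without herbicide (e.g. Cmpd. 1, 1000 μM). After 96 hours, supernatant OD440 was measured; residual brown colour formation compares pigment with and without inhibitor.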

Molecule	Residual activity [1] [%]	Residual turnover [1] [%]	Control BCF OD440nm [2]	Residual BCF OD440nm [%] [2] [%]
73 (protein, mutant HPPD polypeptide) MADLYENPMGLMGFEFIEFASPTPGTLEPIFEIMGFTKVATHRSKNVHLYRQGEINLILNNEPNSIASYFAAEHGPSVCGMAFRVKDSQKAYNRALELGAQPIHIDTGPMELNLPAIKGIGGAPLYLIDRFGEGSSIYDIDFVYLEGVERNPVGAGLKVIDHLTHNVYRGRMVYWANFYEKLFNFREARYFDIKGEYTGLTSKAMSAPDGMIRIPLNEESSKGAGQIEEFLMQFNGEGIQHVAFLTDDLVKTWDALKKIGMRFMTAPSDEYYEMLEGRLPDHGEPVDQLQARGILLDGSSVEGDKRLLLQIFSETLMGPVFFEFIQRKGDDGFGPDSFKVLFESVERDQVRRGVLTAD	29	58	2.75	72
76 (protein, mutant HPPD polypeptide) MADLYENPMGLMGFEFIEFASPTPGTLEPIFEIMGFTKVATHRSKNVHLYRQGEINLILNNEPNSIASYFAAEHGPSVCGMAFRVKDSQKAYNRALELGAQPIHIDTGPMELNLPAIKGIGGAPLYLIDRFGEGSSIYDIDFVYLEGVERNPVGAGLKVIDHLTHNVYRGRMVYWANFYEKLFNFREARYFDIKGEYTGLTSKAMSAPDGMIRIPLNEESSKGAGQIEEFLMQFNGEGIQHVAFLTDDLVKTWDALKKIGMRFMTAPGDRYYEMLEGRLPDHGEPVDQLQARGILLDGSSVEGDKRLLLQIFSETLMGPVFFEFIQRKGDDGFGPDSFKVLFESVERDQVRRGVLTAD	19	50	2.73	58
52 (protein, mutant HPPD polypeptide) MADLYENPMGLMGFEFIEFASPTPGTLEPIFEIMGFTKVATHRSKNVHLYRQGEINLILNNEPNSIASYFAAEHGPSVCGMAFRVKDSQKAYNRALELGAQPIHIDTGPMELNLPAIKGIGGAPLYLIDRFGEGSSIYDIDFVYLEGVERNPVGAGLKVIDHLTHNVYRGRMVYWANFYEKLFNFREARYFDIKGEYTGLTSKAMSAPDGMIRIPLNEESSKGAGQIEEFLMQFNGEGIQHVAFLTDDLVKTWDALKKIGMRFMTAPGDEYYEMLEGRLPDHGEPVDQLQARGILLDGSSVEGDKRLLLQIFSETLMGPVFFEFIQRKGDSGFGPDSFKVLFESVERDQVRRGVLTAD	31	57	2.08	65
83 (protein, mutant HPPD polypeptide) MADLYENPMGLMGFEFIEFASPTPGTLEPIFEIMGFTKVATHRSKNVHLYRQGEINLILNNEPNSIASYFAAEHGPSVCGMAFRVKDSQKAYNRALELGAQPIHIDTGPMELNLPAIKGIGGAPLYLIDRFGEGSSIYDIDFVYLEGVERNPVGAGLKVIDHLTHNVYRGRMVYWANFYEKLFNFREARYFDIKGEYTGLTSKAMSAPDGMIRIPLNEESSKGAGQIEEFLMQFNGEGIQHVAFLTDDLVKTWDALKKIGMRFMTAPGDEYYEMLEGRLPDHGEPVDQLQARGILLDGSSVEGDKRLLLQIFSETLMGPVFFEFIQRKGDDGFGPDSFKGLFESVERDQVRRGVLTAD	53	87	1.83	47
46 (protein, mutant HPPD polypeptide) MADLYENPMGLMGFEFIEFASPTPGTLEPIFEIMGFTKVATHRSKNVHLYRQGEINLILNNEPNSIASYFAAEHGPSVCGMAFRVKDSQKAYNRALELGAQPIHIDTGPMELNLPAIKGIGGAPLYLIDRFGEGSSIYDIDFVYLEGVERNPVGAGLKVIDHLTHNVYRGRMVYWANFYEKLFNFREARYFDIKGEYTGLTSKAMSAPDGMIRIPLNEESSKGAGQIEEFLMQFNGEGIQHVAFLTDDLVKTWDALKKIGMRFMTAPGDEYYEMLEGRLPDHGEPVDQLQARGILLDGSSVEGDKRLLLQIFSEMLMGPVFFEFIQRKGDDGFGPDSFKVLFESVERDQVRRGVLTAD	32	59	2.47	66
77 (protein, mutant HPPD polypeptide) MADLYENPMGLMGFEFIEFASPTPGTLEPIFEIMGFTKVATHRSKNVHLYRQGEINLILNNEPNSIASYFAAEHGPSVCGMAFRVKDSQKAYNRALELGAQPIHIDTGPMELNLPAIKGIGGAPLYLIDRFGEGSSIYDIDFVYLEGVERNPVGAGLKVIDHLTHNVYRGRMVYWANFYEKLFNFREARYFDIKGEYTGLTSKAMSAPDGMIRIPLNEESSKGAGQIEEFLMQFNGEGIQHVAFLTDDLVKTWDALKKIGMRFMTAPGDSYYEMLEGRLPDHGEPVDQLQARGILLDGSSVEGDKRLLLQIFSETLMGPVFFEFIQRKGDDGFGPDSFKVLFESVERDQVRRGVLTAD	19	44	2.57	67
57 (protein, mutant HPPD polypeptide) MADLYENPMGLMGFEFIEFASPTPGTLEPIFEIMGFTKVATHRSKNVHLYRQGEINLILNNEPNSIASYFAAEHGPSVCGMAFRVKDSQKAYNRALELGAQPIHIDTGPMELNLPAIKGIGGAPLYLIDRFGEGSSIYDIDFVYLEGVERNPVGAGLKVIDHLTHNVYRGRMVYWANFYEKLFNFREARYFDIKGEYTGLTSKAMSAPDGMIRIPLNEESSKGAGQIEEFLMQFNGEGIQHVAFLTDDLVKTWDALKKIGMRFMTAPGDEYYEMLEGRLPDHGEPVDQLQARGILLDGSSVEGDKRLLLQIFSETLMGPVFFEFIQRKGDDGFGPDSFTVLFESVERDQVRRGVLTAD	33	68	1.39	46
56 (protein, mutant HPPD polypeptide) MADLYENPMGLMGFEFIEFASPTPGTLEPIFEIMGFTKVATHRSKNVHLYRQGEINLILNNEPNSIASYFAAEHGPSVCGMAFRVKDSQKAYNRALELGAQPIHIDTGPMELNLPAIKGIGGAPLYLIDRFGEGSSIYDIDFVYLEGVERNPVGAGLKVIDHLTHNVYRGRMVYWANFYEKLFNFREARYFDIKGEYTGLTSKAMSAPDGMIRIPLNEESSKGAGQIEEFLMQFNGEGIQHVAFLTDDLVKTWDALKKIGMRFMTAPGDEYYEMLEGRLPDHGEPVDQLQARGILLDGSSVEGDKRLLLQIFSETLMGPVFFEFIQRKGDDGFGPDSFRVLFESVERDQVRRGVLTAD	27	59	1.98	68
81 (protein, mutant HPPD polypeptide) MADLYENPMGLMGFEFIEFASPTPGTLEPIFEIMGFTKVATHRSKNVHLYRQGEINLILNNEPNSIASYFAAEHGPSVCGMAFRVKDSQKAYNRALELGAQPIHIDTGPMELNLPAIKGIGGAPLYLIDRFGEGSSIYDIDFVYLEGVERNPVGAGLKVIDHLTHNVYRGRMVYWANFYEKLFNFREARYFDIKGEYTGLTSKAMSAPDGMIRIPLNEESSKGAGQIEEFLMQFNGEGIQHVAFLTDDLVKTWDALKKIGMRFMTAPGDEYYEMLEGRLPDHGEPVDQLQARGILLDGSSVEGDKRLLLQIFSETLMGPVFFEFIQRKGDDGFGPDSFKALFESVERDQVRRGVLTAD	17	51	2.05	39
